Consider eight molecules from patent US20230120736A1, “ANTI-CD98 ANTIBODIES AND ANTIBODY DRUG CONJUGATES” (AbbVie Inc., priority 2016, published 2023).

What is called IC50 is the concentration that inhibits the measured activity by half.

Marks after values point to notes of the source that are not given here.

Data set [1] has as its system Jurkat acute T cell leukemia cell line. The data set is described as follows: Growth inhibition assay (CellTiter-Glo). To be noted: read-out: ADC potency, IC50, Jurkat, 5-days treatment, 3000 cells per well. (Cellular ATP, detected with luciferase, serves as a proxy for viable cell number.)
Data set [2] deals with HCC38 breast cancer cell line. In words: Growth inhibition assay (CellTiter-Glo). To be noted: read-out: ADC potency, IC50, HCC38, 4-days treatment, 3000 cells per well.
Data set [3] can be described thus: Size exclusion chromatography, % aggregate fraction of ADC. In kind it is physicochemical. The conditions noted are these: hybridoma mAb conjugated with synthon CZ, Method A. The procedure:
Size exclusion chromatography was performed using a Shodex KW802.5 column in 0.2M potassium phosphate pH 6.2 with 0.25 mM potassium chloride and 15% IPA at a flow rate of 0.75 ml/min. The peak area absorbance at 280 nm was determined for each of the high molecular weight and monomeric eluents by integration of the area under the curve. The % aggregate fraction of the conjugate sample was determined by dividing the peak area absorbance at 280 nm for the high molecular weight eluent by the sum of the peak area absorbances at […] of the high molecular weight and monomeric eluents multiplied by 100%.

The test system of data set [4] is EBC-1 (human lung squamous cell carcinoma) xenograft. The data set is described as follows: EBC-1 xenograft tumor growth inhibition. In kind it is in vivo, mouse. The conditions noted are these: SCID-bg mice; for Growth Inhibition TGImax / Response Frequency CR / Response Frequency PR / Tumor growth delay (TGD): 10 mg/kg IP QDx1; for Response Frequency OR: 10 mg/kg IP QDx1, sum of CR and PR. The procedure:
To refer to efficacy of therapeutic agents, parameters of amplitude (TGImax), durability (TGD) and response frequency (CR, PR, OR) of therapeutic response are used. […] In the tables, to refer to efficacy, parameters of amplitude (TGImax) and durability (TGD) of therapeutic response are used. TGImax is the maximum tumor growth inhibition during the experiment. Tumor growth inhibition is calculated by 100*(1−Tv/Cv) where Tv and Cv are the mean tumor volumes of the treated and control groups, respectively. TGD or tumor growth delay is the extended time of a treated tumor needed to reach a volume of 1 cm^3 relative to the control group. TGD is calculated by 100*(Tt/Ct−1) where Tt and Ct are the median time periods to reach 1 cm^3 of the treated and control groups, respectively. Distribution of the response amplitude in a specific group is given by the frequency of complete responders (CR), partial responders (PR), and overall responders (OR). CR is the percentage of mice within a group with a tumor burden of 25 mm^3 for at least three measurements. PR is the percentage of mice within a group with a tumor burden larger than 25 mm^3 but less than one-half of the volume at onset of treatment for at least three measurements. OR is the sum of CR and PR.
EBC-1 was obtained from the Japanese Collection of Research Bioresources Cell Bank (JCRB, Osaka, Japan) and were cultured using MEM culture media with 10% FBS. To generate xenografts, 5×10^6 EBC-1 viable cells were inoculated subcutaneously into the right flank of immune deficient female SCID-bg mice (Charles River Laboratories, Wilmington, Mass.). The injection volume was 0.2 mL and the inoculum was composed of 1:1 mixture of S-MEM and Matrigel. Tumors were size matched at approximately 200 mm^3. Antibodies and conjugates were formulated in phosphate buffered saline, pH 7.2 and injected intraperitoneally. […] Therapy began within 24 hours after size matching of the tumors. Mice weighed approximately 21-22 g at the onset of therapy. Tumor volume was estimated two to three times weekly. Measurements of the length (L) and width (W) of the tumor were taken via electronic caliper and the volume was calculated according to the following equation: V=L×W^2/2. Mice were euthanized when tumor volume reached 3,000 mm^3 or skin ulcerations occurred. Eight mice were housed per cage. Food and water were available ad libitum. Mice were acclimated to the animal facilities for a period of at least one week prior to commencement of experiments. Animals were tested in the light phase of a 12-hour light: 12-hour dark schedule (lights on at 06:00 hours). Anti-CD98 conjugates (10 mg/kg) were administered as a single dose (QDx1) intraperitoneally. A human IgG control antibody (AB095, a human IgG1 antibody recognizing tetanus toxoid See Larrick et al., 1992, Immunological Reviews 69-85) was used as a negative control agent.
To refer to efficacy of therapeutic agents, parameters of amplitude (TGImax), durability (TGD) and response frequency (CR, PR, OR) of therapeutic response are used as described in the Example 6.

B1: Ab14-CZ (conjugate)
VH: EVKLQQSGDELVRPGASVKISCKASGYTFTSYSMHWVKERPGQGLEWIGAIFPIIGTTEYNQKFKGKATLTADKSSNTANMELSRLTSEDSAVYYCARVYLSYFDYWGQGVMVTVSS
VL: DIQMTQSPSFLSASVGDRVTINCKASQNINKYLDWYQRKHGEAPKLLIYNTNNLQTGIPSRFSGSGSGTDYTLTISSLQPEDVATYFCLQHSSRYTFGAGTKLELK
As to B1, the results for the half-inhibitory concentration (IC50) in data set [1] and in data set [2] were 0.063 nM and 0.798 nM, respectively. In addition, the “% Aggregates by SEC” value in data set [3] turned out to be 8.8%.

B2: Ab10-CZ (conjugate)
VH: EVQLVESGGGLVQPGRSLKLSCAASGFTFSDYAMAWVRQAPKKSLEWVATIIYDGRGTYCRDSVKGRFTISRDNAKSTLYLQMDSLRSEDTATYYCARQGDGTYHYWGYFDYWGQGVMVTVSS
VL: DIVMTQSPSSLAVSAGETVTINCKSSQSLLSSGNQKNYLAWYQQKPGQSPKLLIYWASTRQSGVPDRFIGSGSGTDFTLTISSVQAEDLAIYYCQQYYDTPYTFGAGTKVDLK
Regarding B2, the figures for the IC50 in data set [1] and in data set [2] were 0.148 nM and 1.16 nM, respectively. In addition, the “% Aggregates by SEC” value in data set [3] worked out at 4.7%.

B3: Ab11-CZ (conjugate)
VH: EVQLVESGGGLVQPGRSLKLSCAASGFTFSDYAMAWVRQAPKKGLEWVAGIIYDGRGTYYRDSVKGRFTISRDNAKSTLYLQMDSLRSEDTATYYCARQGDGTYYYWGYFDYWGQGVMVTVSS
VL: DIVMTQSPSSLAVSAGETVTINCRSSQSLLSSGNQKNYLAWYQQKPGQSPKLLIYWASTRQSGVPDRFIGSGSGTDFTLTISSVQAEDLAIYYCQQYYDTPYTFGAGTKLELK
As for B3, the IC50 was 0.311 nM in data set [1] and 1.14 nM in data set [2]. In addition, in data set [3], the “% Aggregates by SEC” value is 4.2%.

B4: ChAb15-CZ (conjugate)
VH: EVQLVESGGGLVQPGRSLKLSCAASGFTFSDYTMAWVRQAPKKGLEWVATIIYDGRGTYYRDSVKGRFTISRDNAKSTLYLQMDSLRSEDTATYYCARQSDGTYYYWGYFDYWGQGVMVTVSS
VL: DIVMTQSPSSLAVSAGETVTINCKSSQSLLFSGNQKNYLAWYQQKPGQSPKLLIYWASTRQSGVPDRFIGSGSGTDFTLTIRSVQAEDLAIYYCQQYYDSPYTFGAGTKLELK
As to B4, in data set [4], the “Growth Inhibition TGImax” value is recorded as 70* %, the “Response Frequency CR” value stood at 0%, the “Response Frequency PR” value was determined as 0% and the “Tumor growth delay (TGD)” value is 74* %. In addition, the “Response Frequency OR” value in data set [4] is reported as 0%.

B5: ChAb12-CZ (conjugate)
VH: EVQLVESGGGLVQPGRSLKLSCAASGFTFSDYAMAWVRQAPKKGLEWVASIIYDGRGTYYRDSVKGRFTISRDNAKSTLYLQMDSLRSEDTATYYCARQGDGTYYYWGSFDYWGQGVMVTVSS
VL: DIVMTQSPSSLAVSAGETVTINCKSSQSLLSSGNQKNYLAWYQQKPGQSPKLLIYWASTRQSGVPDRFIGSGSGTDFTLTISSVQAEDLAIYHCQQYYDTPYTFGAGTKLELK
As to B5, in data set [4], the “Growth Inhibition TGImax” value is 76* %, the “Response Frequency CR” value stood at 0%, the “Response Frequency PR” value worked out at 25% and the “Tumor growth delay (TGD)” value is listed as 74* %. The “Response Frequency OR” value in data set [4] is 25%.

B6: Ab15-CZ (conjugate)
VH: EVQLVESGGGLVQPGRSLKLSCAASGFTFSDYTMAWVRQAPKKGLEWVATIIYDGRGTYYRDSVKGRFTISRDNAKSTLYLQMDSLRSEDTATYYCARQSDGTYYYWGYFDYWGQGVMVTVSS
VL: DIVMTQSPSSLAVSAGETVTINCKSSQSLLFSGNQKNYLAWYQQKPGQSPKLLIYWASTRQSGVPDRFIGSGSGTDFTLTIRSVQAEDLAIYYCQQYYDSPYTFGAGTKLELK
In the case of B6, the IC50 amounted to 0.076 nM in data set [1] and 1.06 nM in data set [2]. Further, the “% Aggregates by SEC” value in data set [3] is on record as 5.7%.

B7: Ab12-CZ (conjugate)
VH: EVQLVESGGGLVQPGRSLKLSCAASGFTFSDYAMAWVRQAPKKGLEWVASIIYDGRGTYYRDSVKGRFTISRDNAKSTLYLQMDSLRSEDTATYYCARQGDGTYYYWGSFDYWGQGVMVTVSS
VL: DIVMTQSPSSLAVSAGETVTINCKSSQSLLSSGNQKNYLAWYQQKPGQSPKLLIYWASTRQSGVPDRFIGSGSGTDFTLTISSVQAEDLAIYHCQQYYDTPYTFGAGTKLELK
For the molecule B7, the IC50 in data set [1] turned out to be 0.094 nM; in data set [2], 0.685 nM. In data set [3], the “% Aggregates by SEC” value was determined as 2.9%.

B8: Ab13-CZ (conjugate)
VH: QVQLKESGPGLVQPSQTLSLTCTVSGFSLSSYGVIWVRQPPGKGLEWMGIIWANGNTNYNSALKSRLSISRDTSKSQVYLKMNSLQTEDTATYYCARHYYDGTHYYGYFDYWGQGVMVTVSS
VL: DTVMTQTPSSQAVSAGEKVTMSCKSSQSLLYSENKKKYLAWYQQKPGQSPKLLIYWASTRESGVPDRFIGSGSGTDFTLTISSVQAEDLAVYYCQQYYNFPYTFGAGTKLELK
Regarding B8, the IC50 in data set [1] was determined as 0.149 nM; in data set [2], 0.787 nM. In data set [3], the “% Aggregates by SEC” value came to 4.7%.
